In patent US20080226630A1 (SYMPHOGEN A S, published 2008):

T1: G protein of RSV strain 18537 (subtype B) (human respiratory syncytial virus …, UniProt P20896 1-292)
T1 sequence: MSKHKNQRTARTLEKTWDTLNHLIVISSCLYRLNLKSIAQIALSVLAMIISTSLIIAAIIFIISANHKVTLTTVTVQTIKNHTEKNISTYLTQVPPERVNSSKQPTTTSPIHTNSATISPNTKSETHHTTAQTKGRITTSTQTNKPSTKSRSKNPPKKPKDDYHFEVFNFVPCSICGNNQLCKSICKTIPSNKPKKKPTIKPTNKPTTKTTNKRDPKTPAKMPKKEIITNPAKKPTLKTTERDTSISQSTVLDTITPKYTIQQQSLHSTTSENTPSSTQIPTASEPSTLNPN

T2: G protein of RSV strain Long (subtype A) (human respiratory syncytial virus …, UniProt P20895 1-298)
T2 chain: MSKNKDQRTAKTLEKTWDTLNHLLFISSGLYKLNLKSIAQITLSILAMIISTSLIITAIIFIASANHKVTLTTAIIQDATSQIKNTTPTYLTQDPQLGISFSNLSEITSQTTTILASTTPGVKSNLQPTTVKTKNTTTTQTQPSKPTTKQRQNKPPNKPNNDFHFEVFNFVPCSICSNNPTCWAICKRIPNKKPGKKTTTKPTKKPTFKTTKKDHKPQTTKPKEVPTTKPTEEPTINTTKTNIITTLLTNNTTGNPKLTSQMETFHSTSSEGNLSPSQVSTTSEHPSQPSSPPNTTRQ

T3: recombinant human fractalkine (CX3CL1; R&D systems) (human, UniProt P78423 25-100)
T3 sequence (looked up): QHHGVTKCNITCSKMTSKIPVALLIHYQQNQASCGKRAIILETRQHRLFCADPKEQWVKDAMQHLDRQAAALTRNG

T4: recombinant RSV protein G, G(B): residues 66-292 of strain 18537 (human respiratory syncytial virus …, UniProt P20896 66-292)
T4 construct: also called soluble recombinant G protein; recombinant protein G
T4 sequence: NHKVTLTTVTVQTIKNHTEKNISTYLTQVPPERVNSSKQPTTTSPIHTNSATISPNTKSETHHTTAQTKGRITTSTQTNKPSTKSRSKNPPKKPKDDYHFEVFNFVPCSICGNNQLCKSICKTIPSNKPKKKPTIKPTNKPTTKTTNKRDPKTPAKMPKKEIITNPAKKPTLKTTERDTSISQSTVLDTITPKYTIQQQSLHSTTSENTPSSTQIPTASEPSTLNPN

B1: antibody 793 (clone 793) (antibody, human IgG1, kappa, V domains shown)
VH: QVQLVESGGGLVKPGGSLRLSCAASGFPFGDYYMSWIRQAPGKGLEWVAYINRGGTTIYYADSVKGRFTISRDNAKNSLFLQMNSLRAGDTALYYCARGLILALPTATVELGAFDIWGQGTMVTVSS
VL: DIQMTQSPSSLSASVGDRVTITCRASQSITGYLNWYQQKPGKAPKLLIYATSTLQSEVPSRFSGSGSGTDFTLTISSLQPEDFATYYCQQSYNTLTFGGGTKVEIKR
B2: antibody 853 (clone 853) (antibody, human IgG1, kappa, V domains shown)
VH: EVQLVQSGAEVKKPGQSLKISCKTSGYIFTNYWIGWVRQRPGKGLEWMGVIFPADSDARYSPSFQGQVTISADKSIGTAYLQWSSLKASDTAIYYCARPKYYFDSSGQFSEMYYFDFWGQGTLVTVSS
VL: EIVLTQSPGTLSLSPGERATLSCRASQSVSSNYLAWYQQKPGQAPRLLIYGASSRAAGMPDRFSGSGSGTDFTLTISRLEPEDFAVYYCQQYGNSPLTFGGGTEVEIKR
B3: antibody 855 (clone 855) (antibody, human IgG1, kappa, V domains shown)
VH: QVQLVQSGPEVKKPGASVKVSCKASGYVLTNYAFSWVRQAPGQGLEWLGWISGSNGNTYYAEKFQGRVTMTTDTSTSTAYMELRSLRSDDTAVYFCARDLLRSTYFDYWGQGTLVTVSS
VL: DIQMTQSPSSVSASVGDRVTITCRASQAISNWLAWYQQKPGKAPKLLIYAASSLQSGVPSRFSGSGSGTDFTLTISGLQPEDFATYYCQQADTFPFTFGPGTKVDIKR
B4: antibody 888 (clone 888) (antibody, human IgG1, kappa, V domains shown)
VH: QLQLQESGPGLVKPSETLSLTCTASGGSINSSNFYWGWIRQPPGKGLEWIGSIFYSGTTYYNPSLKSRVTISVDTSKNQFSLKLSPVTAADTAVYHCARHGFRYCNNGVCSINLDAFDIWGQGTMVTVSS
VL: DIVMTQSPLSLPVTPGAPASISCRSSQSLLRTNGYNYLDWYLQKPGQSPQLLIYLGSIRASGVPDRFSGSGSGTDFTLKISRVEAEDVGVYYCMQSLQTSITFGQGTRLEIKR
B5: Palivizumab (Synagis) (antibody, V domains shown)
VH: QVTLRESGPALVKPTQTLTLTCTFSGFSLSTSGMSVGWIRQPPGKALEWLADIWWDDKKDYNPSLKSRLTISKDTSKNQVVLKVTNMDPADTATYYCARSMITNWYFDVWGAGTTVTVSS
VL: DIQMTQSPSTLSASVGDRVTITCKCQLSVGYMHWYQQKPGKAPKLLIYDTSKLASGVPSRFSGSGSGTEFTLTISSLQPDDFATYYCFQGSGYPFTFGGGTKLEIK
B6: Fab fragment of antibody 859 (Fab)
VH: QVQLVESGGGVVQPGRSLRLSCAVSGSSFSKYGIHWVRQAPGKGLEWVAVISYDGSKKYFTDSVKGRFTIARDNSQNTVFLQMNSLRAEDTAVYYCATGGGVNVTSWSDVEHSSSLGYWGLGTLVTVSS
light: DIQMTQSPSSLSASVGDRVTITCRASQGIRNYLAWYQQKPGKVPKLLVFAASTLQSGVPSRFSGSGSGTDFTLTISSLQPEDVATYYCQRYNSAPLTFGGGTKVEIKRTVAAPSVFIFPPSDEQLKSGTASVVCLLNNFYPREAKVQWKVDNALQSGNSQESVTEQDSKDSTYSLSSTLTLSKADYEKHKVYACEVTHQGLSSPVTKSFNRGEC
notes: also called Fab clone 859
B7: antibody 816 (clone 816) (antibody, human IgG1, kappa, V domains shown)
VH: EVQLLESGGGLVQPGGSLRLSCVASGFTFSTYAMTWVRQAPGKGLEWVSVIRASGDSEIYADSVRGRFTISRDNSKNTVFLQMDSLRVEDTAVYFCANIGQRRYCSGDHCYGHFDYWGQGTLVTVSS
VL: DIVMTQSPLSLPVTPGEPASISCRSSQSLLHSDGRYYVDWYLQKPGQSPHLLIYLASNRASGVPDRFTGSGSGTDFTLKISRVEAEDVGVYYCMQGLHTPWTFGQGTKVDIKR
B8: antibody 835 (clone 835) (antibody, human IgG1, kappa, V domains shown)
VH: QVQLVQSGAEVKRPGASVKVSCKASGYTFISYGFSWVRQAPGQGLEWMGWSSVYNGDTNYAQKFHGRVNMTTDTSTNTAYMELRGLRSDDTAVYFCARDRNVVLLPAAPFGGMDVWGQGTMVTVSS
VL: DIQLTQSPSFLSASLEDRVTITCRASQGISSYLAWYQQKPGKAPKLLLDAASTLQSGVPSRFSGSGSGTEFTLTISSLQPEDFATYYCQQLNSYPRTFGQGTKVDIKR
B9: antibody 841 (clone 841) (antibody, human IgG1, kappa, V domains shown)
VH: QVQLVQSGAEVKKPGASVKVSCKASGYTFISFGISWVRQAPGQGLEWMGWISAYNGNTDYAQRLQDRVTMTRDTATSTAYLELRSLKSDDTAVYYCTRDESMLRGVTEGFGPIDYWGQGTLVTVSS
VL: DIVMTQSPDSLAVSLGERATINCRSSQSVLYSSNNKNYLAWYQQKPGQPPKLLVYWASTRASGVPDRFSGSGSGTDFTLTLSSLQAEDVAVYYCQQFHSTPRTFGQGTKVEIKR
B10: antibody 856 (clone 856) (antibody, human IgG1, kappa, V domains shown)
VH: QVQLVQSGAEVKKPGASVKVSCKASGYTFSNYGFSWVRQAPGRGLEWMGWISAYNGNTYYAQNLQGRVTMTTDTSTTTAYMVLRSLRSDDTAMYYCARDGNTAGVDMWSRDGFDIWGQGTMVTVSS
VL: DIVMTQTPLSLPVTPGEPASISCRSSQSLLDSNDGNTYLDWYLQKPGQSPQLLIYTFSYRASGVPDRFSGSGSGTDFTLKISRVEAEDVGVYYCMQRIEFPYTFGQGTKLEIKR

Tests used:
[1] = target: T1, G protein of RSV strain 18537 (subtype …); experiment: cell-based or functional assay
[2] = target: T2, G protein of RSV strain Long (subtype A); experiment: cell-based or functional assay
[3] = target: T3, recombinant human fractalkine (CX3CL1; …); experiment: ELISA on recombinant human fractalkine
Experimental: Selected clones identified as protein G-specific were also tested for cross-reactivity with recombinant human fractalkine (CX3CL1; R&D systems) by ELISA. Anti-human CX3CL1/Fractalkine monoclonal antibody (R&D systems) was used as a positive control.

[4] = target: F protein of RSV strain A2 (human respiratory syncytial virus …, UniProt P03420 26-574); experiment: cell-based or functional assay
[5] = target: F protein of RSV strain 18537 (human respiratory syncytial virus …, UniProt P13843 26-574); experiment: cell-based or functional assay
[6] = target: F protein of RSV strain Long (human respiratory syncytial virus …, UniProt P12568 26-574); experiment: cell-based or functional assay
[7] = target: T4, recombinant RSV protein G, G(B): …; experiment: SPR Biacore 3000, Fab over amine-coupled recombinant protein G

Chain of F protein of RSV strain Long (P12568 26-574): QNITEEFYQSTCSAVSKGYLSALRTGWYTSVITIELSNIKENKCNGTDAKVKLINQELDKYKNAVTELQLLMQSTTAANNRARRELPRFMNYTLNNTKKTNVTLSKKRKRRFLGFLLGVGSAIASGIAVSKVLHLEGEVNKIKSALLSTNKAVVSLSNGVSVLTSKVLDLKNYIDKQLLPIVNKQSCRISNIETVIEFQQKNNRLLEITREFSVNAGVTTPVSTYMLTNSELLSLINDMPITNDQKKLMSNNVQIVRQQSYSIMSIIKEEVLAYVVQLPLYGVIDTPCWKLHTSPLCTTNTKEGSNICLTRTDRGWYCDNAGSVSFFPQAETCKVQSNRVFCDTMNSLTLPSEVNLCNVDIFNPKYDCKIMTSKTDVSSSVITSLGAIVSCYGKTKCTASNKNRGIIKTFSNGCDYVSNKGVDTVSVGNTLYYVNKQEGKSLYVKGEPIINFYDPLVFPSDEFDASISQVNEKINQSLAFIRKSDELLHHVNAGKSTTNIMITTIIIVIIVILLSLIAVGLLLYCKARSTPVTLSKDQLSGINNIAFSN
Chain of F protein of RSV strain A2 (P03420 26-574): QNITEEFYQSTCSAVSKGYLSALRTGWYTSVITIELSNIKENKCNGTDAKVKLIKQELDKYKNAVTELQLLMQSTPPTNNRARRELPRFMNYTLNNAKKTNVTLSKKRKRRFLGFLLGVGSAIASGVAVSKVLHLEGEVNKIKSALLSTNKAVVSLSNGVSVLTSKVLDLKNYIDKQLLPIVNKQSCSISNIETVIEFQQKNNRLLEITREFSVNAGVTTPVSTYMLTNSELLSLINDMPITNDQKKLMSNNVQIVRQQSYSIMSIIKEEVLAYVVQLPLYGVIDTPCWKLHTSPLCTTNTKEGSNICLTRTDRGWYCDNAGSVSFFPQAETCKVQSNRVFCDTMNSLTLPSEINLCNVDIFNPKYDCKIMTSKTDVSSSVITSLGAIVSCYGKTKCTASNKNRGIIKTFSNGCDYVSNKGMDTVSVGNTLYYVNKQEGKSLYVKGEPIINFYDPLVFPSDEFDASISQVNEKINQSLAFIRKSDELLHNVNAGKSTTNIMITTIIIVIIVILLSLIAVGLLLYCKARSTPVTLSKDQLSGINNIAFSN
Chain of F protein of RSV strain 18537 (P13843 26-574): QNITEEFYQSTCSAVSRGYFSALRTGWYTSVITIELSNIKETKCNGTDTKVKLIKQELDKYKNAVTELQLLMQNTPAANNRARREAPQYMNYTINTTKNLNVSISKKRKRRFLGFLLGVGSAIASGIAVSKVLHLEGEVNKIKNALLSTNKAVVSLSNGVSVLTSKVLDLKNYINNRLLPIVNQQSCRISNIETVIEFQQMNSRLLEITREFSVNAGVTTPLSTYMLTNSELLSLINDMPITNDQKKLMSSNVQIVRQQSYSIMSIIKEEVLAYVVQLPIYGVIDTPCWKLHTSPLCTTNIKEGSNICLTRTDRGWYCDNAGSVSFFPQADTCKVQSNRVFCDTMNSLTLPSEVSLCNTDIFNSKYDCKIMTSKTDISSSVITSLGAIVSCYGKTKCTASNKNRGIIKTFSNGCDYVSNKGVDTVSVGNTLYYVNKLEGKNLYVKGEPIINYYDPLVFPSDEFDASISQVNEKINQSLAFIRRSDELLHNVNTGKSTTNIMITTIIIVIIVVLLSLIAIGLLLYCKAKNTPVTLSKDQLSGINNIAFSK

Binder	EC50, PRNT with complement, RSV Long [2] [µg/mL]	binding result [3]	further results
B1	2.52	no binding	EC50, PRNT with complement, RSV 18537 [1]: 0.09 µg/mL
B2	1.49	no binding	EC50, PRNT with complement, RSV 18537 [1]: 0.14 µg/mL; EC50, PRNT with complement, RSV Long (new determination) [2]: 0.13 µg/mL
B3	6.35	no binding	–
B4	0.14	no binding	–
B5	–	–	EC50, PRNT with complement, RSV A2 [4]: 0.15 µg/mL; EC50, PRNT with complement, RSV 18537 [5]: 0.2 µg/mL; EC50, PRNT with complement, RSV Long [6]: 0.14 µg/mL
B6	–	–	Kd [7]: 0.12 nM; koff [7]: 4.63e-05 s⁻¹; kon [7]: 380000 M⁻¹ s⁻¹; t1/2 [7]: 4.17 h
B7	–	no binding	–
B8	–	no binding	–
B9	–	no binding	–
B10	–	no binding	–
